{"source": "patent US7547676B2", "about": "“Antagonist peptides to the C5A chemotactic function of vitamin D binding protein” (The Research Foundation of State University of New York, priority 2004, dated 2009)", "molecules": {"B1": {"name": "DBP: Purified human DBP obtained from Biodesign International (protein)", "chain": "LERGRDYEKNKVCKEFSHLGKEDFTSLSLVLYSRKFPSGTFEQVSQLVKEVVSLTEACCAEGADPDCYDTRTSALSAKSCESNSPFPVHPGTAECCTKEGLERKLCMAALKHQPQEFPTYVEPTNDEICEAFRKDPKEYANQFMWEYSTNYGQAPLSLLVSYTKSYLSMVGSCCTSASPTVCFLKERLQLKHLSLLTTLSNRVCSQYAAYGEKKSRLSNLIKLAQKVPTADLEDVLPLAEDITNILSKCCESASEDCMAKELPEHTVKLCDNLSTKNSKFEDCCQEKTAMDVFVCTYFMPAAQLPELPDVELPTNKDVCDPGNTKVMDKYTFELSRRTHLPEVFLSKVLEPTLKSLGECCDVEDSTTCFNAKGPLLKKELSSFIDKGQELCADYSENTFTEYKKKLAERLKAKLPDATPTELAKLVNKHSDFASNCCSINSPPLYCDSEIDAELKNIL"}}, "key": {"U937-C5aR cells": {"test_system": "U937-C5aR cells", "assay": "C5a-induced intracellular calcium mobilization in U937-C5aR cells", "assay_type": "cell-based, human", "settings": "FIG. 11A; cells pretreated 30 min at 22° C. with 50 nM DBP", "description": "FIG. 11A and FIG. 11B show the effect of DBP on C5a-induced intracellular calcium mobilization in U937-C5aR cells. U937-C5aR cells (10^7 cells/ml) were resuspended in HBSS-1% BSA containing 2 μM Fluo-3 AM and incubated at 37° C. for 40 minutes. Cells incubated without the dye were used as a control to measure autofluorescence (Fmin). Following the dye uptake, cells were washed twice then suspended at 5×10^6 cells/ml in HBSS containing 1% BSA. For the pretreatment experiments, cells were incubated for 30 min at 22° C. with 50 nM DBP or 0.5 μM DBP peptide 1 (p1). For each measurement, 400 μl of cell suspension was added to a cuvette and stimulated with the indicated concentration of C5a (FIG. 11A) or 0.1 nM C5a (FIG. 11B). Fluorescence was then measured immediately using a Perkin-Elmer LS-5 fluorometer at 505 nm excitation, 526 nm emission for Fluo-3 AM. Fmax was measured by treating labeled cells with 60 μM digitonin. Intracellular free calcium concentrations were calculated using the following formula: (Ca^2+)=Kd (F−Fmin)/(Fmax−F), where Kd=325 nM for Fluo-3 according to manufacturer (Molecular Probes). Data are presented as mean±SEM (n=4-6) of the increase in intracellular calcium concentration.\nU937-C5aR cells (10^7 cells/ml) were resuspended in HBSS-1% BSA containing 2 μM Fluo-3 AM and incubated at 37° C. for 40 minutes. Cells incubated without the dye were used as a control to measure autofluorescence (Fmin). Following the dye uptake, cells were washed twice then suspended at 5×10^6 cells/ml in HBSS containing 1% BSA. Cells were incubated for 30 min at 22° C. with either 50 nM DBP or 0.5 μM DBP peptide. For each measurement, 400 μl of cell suspension was added to a cuvette and stimulated with 0.1 nM purified C5a. Fluorescence was then measured immediately using a Perkin-Elmer LS-5 fluorometer at 505 nm excitation, 526 nm emission for Fluo-3 AM. Fmax was measured by treating labeled cells with 60 μM digitonin. Intracellular free calcium concentrations were calculated using the following formula: (Ca2+)=Kd (F−Fmin)/(Fmax−F), where Kd=325 nM for Fluo-3 according to manufacturer (Molecular Probes)"}, "[1]": {"test_system": "differentiated HL-60 cells", "assay": "Ligand-induced calcium mobilization (Fluo-3 AM) in differentiated HL-60 cells", "assay_type": "cell-based, Human", "settings": "differentiated HL-60 cells incubated 30 min with 50 nM of indicated DBP, then C5a", "description": "Cells and cell culture: Human promyelocytic cell line HL-60 was obtained from ATCC (Rockville, Md.) and cultured in RPMI 1640 medium supplemented with 10% FBS. Differentiation of HL-60 cells was initiated with 250 μM Bt2cAMP for 48 hours.\nLigand-induced calcium mobilization. Calcium mobilization studies were performed using the Fluo-3 AM probe as described previously (see Merritt, J. E. et al., Biochem. J. 269, 513-519 (1990)). Differentiated HL-60 cells (1×10^7 cells/ml) were resuspended in HBSS-1% BSA containing 2 μM Fluo-3 AM (Molecular Probes, Eugene, Oreg.) and incubated at 37° C. for 40 minutes. Cells incubated without the dye were used as a control to measure autofluorescence (Fmin). Following the dye uptake, cells were washed twice then suspended at 5×10^6 cells/ml in HBSS containing 1% BSA. Half of the cell suspension was treated with 50 nM DBP for 30 min at room temperature, the other half served as the untreated control. For each measurement, 400 μl of cell suspension (with or without DBP) was added to a cuvette and stimulated with various concentrations of purified C5a at room temperature (22-24° C.). Fluorescence was then measured immediately using a Perkin-Elmer LS-5 fluorometer at 505 nm excitation, 526 nm emission for Fluo-3 AM. Fmax was measured by treating labeled cells with 60 μM digitonin. Intracellular free calcium concentrations were calculated using the following formula: (Ca^2+)=Kd (F−Fmin)/(Fmax−F), where Kd=325 nM for Fluo-3 according to manufacturer (Molecular Probes)."}}}
{"molecule": "B1", "values": [{"measurement": "effect on C5a-induced increase in intracellular calcium", "setting": "U937-C5aR cells", "value": "significantly augments"}, {"measurement": "enhancement of intracellular Ca2+ flux in response to C5a", "setting": "[1]", "value": "significantly enhanced intracellular calcium influx"}, {"measurement": "enhancement of intracellular Ca2+ flux in response to C5a", "setting": "[1]; listed as natural DBP", "value": "significantly enhanced"}]}
